Among the data in patent US20200079826 are activity values, retold here.

What all share (test): cell_activity
Series [1] deals with ZFN 56529 (synthetic). Conditions: pair with 56526; K562 deltaF508 line.
Series [2] relates to ZFN 56527 (synthetic). Conditions: pair with 56526; K562 deltaF508 line.
For series [3], the system named is ZFN 56127 (synthetic). Conditions: pair with 56126; K562.
Series [4] relates to ZFN 56254 (synthetic). Conditions: pair with 56255; K562.
The test system of series [5] is ZFN 56690 (synthetic). Conditions: pair with 56691; Neuro2a.
In series [6] the test system is ZFN 56316 (synthetic). Conditions: pair with 56317; K562.
In series [7] the test system is ZFN 56643 (synthetic). To be noted: pair with 56644; Neuro2a.
The subject of series [8] is ZFN 56526 (synthetic). To be noted: 16.8% with 56527; K562 deltaF508 line.
Series [9] deals with ZFN 56444 (synthetic). To be noted: pair with 56445; K562; F6 printed QSGMLAR but cited as SEQ 5 (QSGNLAR).
The test system of series [10] is ZFN 56126 (synthetic). Conditions: pair with 56127; K562.
Series [11] deals with ZFN 56691 (synthetic). To be noted: pair with 56690; Neuro2a; Table 2 site differs slightly from listing.
In series [12] the test system is ZFN 56445 (synthetic). To be noted: pair with 56444; K562.
The test system of series [13] is ZFN 56255 (synthetic). Conditions: pair with 56254; K562.
In series [14] the test system is ZFN 56644 (synthetic). Conditions: pair with 56643; Neuro2a.
The subject of series [15] is ZFN 56317 (synthetic). To be noted: pair with 56316; K562.

Consider “ATGATGAATATAGATACAGAAGCGTCAT (double strand) [CFTR dF508 56529/56527 site]”, for which the activity in series [1] was determined as 19.6 % indels; in [2] it was 16.8 % indels.

“ATGGAAACTGAGCTGCAGGTGTGTGATT (double strand) [CFTR int7 56127 site]” registered an activity in series [3] of 55.4 % indels.

As for “ATTAAGTCCACGCATACTGAAGTCTTGG (double strand) [CFTR int8 56254 site]”, the activity in [4] was determined as 50.1 % indels.

With “CCCTGGGTTATGCTGTGATCTTGTGTCA (double strand) [Cftr int1 56690 site]”, the activity in series [5] worked out at 67.2 % indels.

For “GAAAAGACTATTGAGGGACTGGTGTAGA (double strand) [CFTR int1 56316 site]”, the activity in series [6] is 52 % indels.

For the sequence “GCAATGCTTCATGGGAAAGTACAGTGGC (double strand) [Cftr int8 56643 site]”, in series [7], the activity amounted to 49.2 % indels.

The sequence “GGAAACACCAATGATATTTTCTTTAATG (double strand) [CFTR dF508 56526 site]” showed an activity in series [8] of 19.6 % indels.

In turn, “GGGAAGAAGCAGCTGAAATGTGTAGGTG (double strand) [CFTR int3 56444 site]” registered an activity in series [9] of 32.7 % indels.

For the sequence “GTACACTGGACTCAGCAGCCTGAATTCC (double strand) [CFTR int7 56126 site]”, in series [10], the activity stood at 55.4 % indels.

In [11], “GTCAACAGGTGTACTGCAGGCATGCTAG (double strand) [Cftr int1 56691 site]” gave an activity of 67.2 % indels.

“GTGAGAAGGCAGAGAGAAGAATATTTAT (double strand) [CFTR int3 56445 site]” had an activity in series [12] of 32.7 % indels.

On to “TAGGGAAGGTAGGAGCATAAGGAAGAAT (double strand) [CFTR int8 56255 site]”, for which the activity in [13] is 50.1 % indels.

In the case of “TGGAAGCTGAAGTTCTTGGAACATAGCA (double strand) [Cftr int8 56644 site]”, in series [14], the activity was 49.2 % indels.

For the sequence “TTTATCCTTTTGCTGACCATGTTTTGTT (double strand) [CFTR int1 56317 site]”, the activity in series [15] worked out at 52 % indels.
